Source: the supplement of paper PMC10567573

B1: MMP1 (parent)
chain: FVRGDHRDNSPFDGPGGNLAHAFQ
B2: ELF3 (parent)
chain: RLVYKFGKNSSGWKEEEVLQSRN

Variants of: B1
Test: protein stability index of a GFP-peptide fusion (GPS, HEK-293T) (PSI 1-6); higher = more stable
Settings: c terminus: a fixed tail appended
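Also: lentivirally expressed fusions sorted by FACS into six bins by GFP to DsRed ratio, PSI derived from sequencing read proportions per bin multiplied by bin number.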

Variant | protein stability index
FVPGDHRDNSPFDGPGGNLAHAFQ [R3P] | 1.44
FVRGDHRDNSFFDGPGGNLAHAFQ [P11F] | 1.83
LVRGDHRDNSPFDGPGGNLAHAFQ [F1L] | 3.52
FVRGDHRDNSPFDGPGGLLAHAFQ [N18L] | 3.23
FVRGDHRDNSPFDGPGGNLAHAFP [Q24P] | 1.97
FVWGDHRDNSPFDGPGGNLAHAFQ [R3W] | 1.86
FVRGDHRDNSPFDGPGGNLAHAGQ [F23G] | 2.12
FDRGDHRDNSPFDGPGGNLAHAFQ [V2D] | 3.58
FVRGTHRDNSPFDGPGGNLAHAFQ [D5T] | 3.73
FVRGDSRDNSPFDGPGGNLAHAFQ [H6S] | 1.85
FVRGDHRDLSPFDGPGGNLAHAFQ [N9L] | 2.31
FVRGDHRDNSPFDGPGGTLAHAFQ [N18T] | 1.92
FVRGDHRDNSPFDGPGWNLAHAFQ [G17W] | 2.48
FVRGDHRDNSPFDGPGGNLAHAFH [Q24H] | 1.84
FVRGSHRDNSPFDGPGGNLAHAFQ [D5S] | 2.75
NVRGDHRDNSPFDGPGGNLAHAFQ [F1N] | 3.66
FVRGDHRDNTPFDGPGGNLAHAFQ [S10T] | 2.13
FVRGDQRDNSPFDGPGGNLAHAFQ [H6Q] | 1.42
FVRGDHRDNSPFDGPGGNLFHAFQ [A20F] | 2.66
FVRGDHRDNSPMDGPGGNLAHAFQ [F12M] | 2.08
FVRGDHRDNSRFDGPGGNLAHAFQ [P11R] | 2.4
FVRGDHRDNSPFDGPIGNLAHAFQ [G16I] | 2.4
FVRGDHRDNLPFDGPGGNLAHAFQ [S10L] | 1.83
FVRGDHRDNSPFDGPGANLAHAFQ [G17A] | 1.58

Variant | protein stability index
FVRGDHRDNSLFDGPGGNLAHAFQ [P11L] | 1.34
FVRGDHRDNSPFDGPGGNLAPAFQ [H21P] | 1.47
FVRGDHRDNSPFDGPGGNLAHAQQ [F23Q] | 2.11
FVRNDHRDNSPFDGPGGNLAHAFQ [G4N] | 2.04
FVRGDHRDNSPFDGPGGNLAHMFQ [A22M] | 2.4
FVRGDHRDNSPFDGDGGNLAHAFQ [P15D] | 2.97
FVRGDHRDNSPFVGPGGNLAHAFQ [D13V] | 3.19
FVRGDHRDNSPFQGPGGNLAHAFQ [D13Q] | 2.21
FVRGGHRDNSPFDGPGGNLAHAFQ [D5G] | 1.34
FSRGDHRDNSPFDGPGGNLAHAFQ [V2S] | 2.76
FVRGDHRDNSPFDGPGGNLSHAFQ [A20S] | 1.88
FVRGDHRDNSPFDGPEGNLAHAFQ [G16E] | 2.54
FVRGDHRDNGPFDGPGGNLAHAFQ [S10G] | 1.3
FVRGDHRDNSPFDGPGGNLAHDFQ [A22D] | 2.44
FVRGDHRDNSPFDYPGGNLAHAFQ [G14Y] | 2.2
FVRGDHRDNSPFDQPGGNLAHAFQ [G14Q] | 3.14
FVRGDHRDNSPFDGPGGNLAIAFQ [H21I] | 2.7
FVRGDHRDNSPFDGPGGHLAHAFQ [N18H] | 1.88
FVRGDHRDNSPFDGPGGNLAHAAQ [F23A] | 1.78
FVRGDHRDNSPFDGPGGNLAHACQ [F23C] | 1.38
FVRGDHRDNSPFDGPGGNLAHAYQ [F23Y] | 2.12
FVRGDHRDMSPFDGPGGNLAHAFQ [N9M] | 2.27
FVRGDHRDNSPTDGPGGNLAHAFQ [F12T] | 2.39
FVRGDHRDNSPFDGPGGNLAHKFQ [A22K] | 2.42

Variants of: B2
Test: as above
Settings: c terminus: native

Variant | protein stability index
ALVYKFGKNSSGWKEEEVLQSRN [R1A] | 2.54
CLVYKFGKNSSGWKEEEVLQSRN [R1C] | 2.32
ELVYKFGKNSSGWKEEEVLQSRN [R1E] | 3.17
FLVYKFGKNSSGWKEEEVLQSRN [R1F] | 2.22
GLVYKFGKNSSGWKEEEVLQSRN [R1G] | 2.87
HLVYKFGKNSSGWKEEEVLQSRN [R1H] | 2.72
ILVYKFGKNSSGWKEEEVLQSRN [R1I] | 1.62
KLVYKFGKNSSGWKEEEVLQSRN [R1K] | 2.55
LLVYKFGKNSSGWKEEEVLQSRN [R1L] | 1.83
MLVYKFGKNSSGWKEEEVLQSRN [R1M] | 2.4
NLVYKFGKNSSGWKEEEVLQSRN [R1N] | 3
PLVYKFGKNSSGWKEEEVLQSRN [R1P] | 3.7
QLVYKFGKNSSGWKEEEVLQSRN [R1Q] | 2.67
SLVYKFGKNSSGWKEEEVLQSRN [R1S] | 1.69
TLVYKFGKNSSGWKEEEVLQSRN [R1T] | 2.18
VLVYKFGKNSSGWKEEEVLQSRN [R1V] | 1.24
YLVYKFGKNSSGWKEEEVLQSRN [R1Y] | 1.69
RAVYKFGKNSSGWKEEEVLQSRN [L2A] | 3.2
RCVYKFGKNSSGWKEEEVLQSRN [L2C] | 2.29
RDVYKFGKNSSGWKEEEVLQSRN [L2D] | 4.22
REVYKFGKNSSGWKEEEVLQSRN [L2E] | 4.2
RFVYKFGKNSSGWKEEEVLQSRN [L2F] | 2.79
RGVYKFGKNSSGWKEEEVLQSRN [L2G] | 2.78
RHVYKFGKNSSGWKEEEVLQSRN [L2H] | 3.38

Variant | protein stability index
RIVYKFGKNSSGWKEEEVLQSRN [L2I] | 2.45
RKVYKFGKNSSGWKEEEVLQSRN [L2K] | 2.31
RMVYKFGKNSSGWKEEEVLQSRN [L2M] | 2.99
RNVYKFGKNSSGWKEEEVLQSRN [L2N] | 3.41
RPVYKFGKNSSGWKEEEVLQSRN [L2P] | 2.66
RQVYKFGKNSSGWKEEEVLQSRN [L2Q] | 3.04
RRVYKFGKNSSGWKEEEVLQSRN [L2R] | 2.87
RSVYKFGKNSSGWKEEEVLQSRN [L2S] | 2.93
RTVYKFGKNSSGWKEEEVLQSRN [L2T] | 2.84
RVVYKFGKNSSGWKEEEVLQSRN [L2V] | 2.71
RWVYKFGKNSSGWKEEEVLQSRN [L2W] | 1.58
RYVYKFGKNSSGWKEEEVLQSRN [L2Y] | 1.85
RLAYKFGKNSSGWKEEEVLQSRN [V3A] | 3.88
RLCYKFGKNSSGWKEEEVLQSRN [V3C] | 1.71
RLDYKFGKNSSGWKEEEVLQSRN [V3D] | 4.2
RLEYKFGKNSSGWKEEEVLQSRN [V3E] | 4.75
RLFYKFGKNSSGWKEEEVLQSRN [V3F] | 2.38
RLGYKFGKNSSGWKEEEVLQSRN [V3G] | 2.48
RLHYKFGKNSSGWKEEEVLQSRN [V3H] | 2.53
RLKYKFGKNSSGWKEEEVLQSRN [V3K] | 2.49
RLLYKFGKNSSGWKEEEVLQSRN [V3L] | 1.9
RLMYKFGKNSSGWKEEEVLQSRN [V3M] | 2.38
RLNYKFGKNSSGWKEEEVLQSRN [V3N] | 3.46
RLPYKFGKNSSGWKEEEVLQSRN [V3P] | 2.63
